# From patent US8124835B2, “Acyl-coa-dependent diacylglycerol acyltransferas 1 (DGAT1) gene from Tropaeolum majus, protein encoded thereby and uses thereof” (National Research Council of Canada, priority 2006, dated 2012)
# How the values were obtained:
# DGAT activity = test: TmDGAT1 expressed in Sf9 insect cells, DGAT assay of membrane fractions; type: biochemical, Tropaeolum majus; conditions: Sf9 total membrane fraction (100,000×g pellet), 48 hours; sn-1,2-diolein + [1-14C]oleoyl-CoA
# Protocol: FIG. 7. Expression of T. majus DGAT1 in baculovirus insect cells. TmDGAT1 activity was determined using membranes isolated from insect cells infected with wild type baculovirus (Control) and TmDGAT1 recombinant baculovirus in the presence of sn-1,2-diolein and [1-^14C]oleoyl-CoA.
# The coding region of TmDGAT1 (SEQ. ID. NO: 2) was sub-cloned into pFastBAC for expression of the protein in an insect cell expression system (Bac-to-Bac baculovirus expression system, Invitrogen). Escherichia coli DH10Bac cells were transformed with the construct to generate recombinant bacmid DNA, and then the bacmid DNA was isolated and used to transfect Sf9 insect cells. The virus stock harvested from the transfected cells was used to re-infect fresh Sf9 insect cells. Insect cells (2.5×10^6 per 25 cm^2 dish) were infected with virus and were collected at 48 h by centrifugation and washed twice with PBS (Hobbs et al., 1999). […]
# DGAT assays were conducted at pH 7.4, with shaking at 100 rev/min in a water bath at 30° C. for 60 min. […] The ^14C-labelled TAGs were isolated by TLC on silica gel G plates developed in hexane:diethyl ether:acetic acid (70:30:1 v/v/v/), the radiolabelled TAG bands visualized on a Bioscan AR-2000 radio-TLC scanner using Win-Scan 2D© software (Bioscan Inc., Washington D.C., USA) and the bands scraped and quantified as described by Taylor et al. (1991). […]
# [1] = test system: wild type (WT) Arabidopsis; test: Over-expression of TmDGAT1 in wild-type Arabidopsis; type: in vivo, Arabidopsis thaliana
# Excerpt: FIG. 10. Over expression of the TmDGAT1 in Arabidopsis. Effect of transformation of Arabidopsis with the TmDGAT1 cDNA under the control of a napin promoter on (A) oil content and (B) average 1000-seed weight. Total oil content (as percentage of mature seed dry weight) and seed weight are shown for pSE (empty plasmid) in WT Arabidopsis (white bars), non-transformed WT Arabidopsis (black bars) and napin:TmDGAT1 transgenic homozygous T3 Arabidopsis lines (gray bars represent transgenic lines with a single insert and hatched bars represents transgenic lines with multiple inserts). (C) Fatty acid composition is shown for pSE (empty plasmid) in WT Arabidopsis and napin:TmDGAT1 transgenic homozygous T3 Arabidopsis lines. Homozygous T3 napin:TmDGAT1 lines were analyzed in triplicate, about 200 seeds per sample, accurately counted and weighed. For the plasmid only pSE in WT transgenic and non-transformed WT controls, ≧8 individual seed lots were similarly analyzed; the averaged values are presented.
# FIG. 11. […]
# Transgenic plants were selected and analyzed essentially as described previously (Jako et al., 2001; Mietkiewska et al., 2004). […]
# Segregation analyses were performed to further confirm and select those transformants containing a single copy of the inserted fragment. […] Plants that contained the insertion (as shown by the presence of a PCR product from a napin/NOS junction using NN3 primer (5′-[…]-3′; SEQ ID NO: 22) and NN4 primer (5′-[…]-3′; SEQ ID NO: 23) and that carry a single locus insertion (as determined by a 3:1 segregation ratio of T2 seeds on kanamycin) were identified. Southern analyses were performed to further confirm and select those transformants containing single vs. multiple copies of the inserted fragment. DNA samples were digested with restriction enzymes KpnI (or BglII), resolved by electrophoresis on a 1% (w/v) agarose gel, and Southern blotting performed using a nylon filter (Hybond N+, Amersham) according to Sambrook et al. (1989). […]
molecule,measurement,setting,value
"TmDGAT1: Tropaeolum majus acyl-CoA-dependent diacylglycerol acyltransferase 1, 518 amino acids (SEQ ID NO: 3), encoded by ORF SEQ ID NO: 2 (protein, listed as Tropaeolum majus) MAVAESSQNTTTMSGHGDSDLNNFRRRKPSSSVIEPSSSGFTSTNGVPATGHVAENRDQDRVGAMENATGSVNLIGNGGGVVIGNEEKQVGETDIRFTYRPSFPAHRRVRESPLSSDAIFKQSHAGLFNLCIVVLIAVNSRLIIENLMKYGWLIDTGFWFSSRSLGDWSIFMCCLTLPIFPLAAFIVEKLVQRNHISELVAVLLHVIVSTAAVLYPVIVILTCDSVYMSGVVLMLFGCIMWLKLVSYAHTSSDIRTLAKSGYKGDAHPNSTIVSCSYDVSLKSLAYFMVAPTLCYQPSYPRSSCIRKGWVVRQFVKLIVFIGLMGFIIEQYINPIVRNSKHPLKGDFLYAIERVLKLSVPNLYVWLCMFYSFFHLWLNILAELLRFGDREFYKDWWNAKTVAEYWKMWNMPVHRWMVRHLYFPCLRNGIPKEGAIIIAFLVSGAFHELCIAVPCHVFKLWAFIGIMFQVPLVLITNYLQEKFSNSMVGNMIFWFIFCILGQPMCVLLYYHDLINLKEK",DGAT activity relative to membrane fraction from control cells infected with vector only,DGAT activity,about 10 fold
same,net increase in oil content,[1]; best line (TD/WT 13-6),44%
same,increase in DGAT activity,"[1]; best line (TD/WT 13-6), mid-developing seed",two-fold
same,increase in total proportion of mono-unsaturated fatty acids (18:1+20:1) in seed TAGs,[1]; data not shown,2-3%
